Assay results as given in US20210252159A1, “CONJUGATES OF CARTILAGE-HOMING PEPTIDES” (priority 2018, published 2021).
Positions of bridges follow the written chain, without caps; N, C: chain ends. Residues, ends and D or L forms follow the SMILES beside them. *: point of attachment. X1 = CC(CCC(C)C(=O)*)C(=O)OCC(=O)[C@@]1(O)[C@H](C)C[C@H]2[C@@H]3CCC4=CC(=O)C=C[C@]4(C)[C@@]3(F)[C@@H](O)C[C@@]21C

Tests used:
[1] = Hydrolysis assay of peptide-drug conjugates in human plasma (free Dex by LC/MS); type: in vitro ADME; conditions: 37° C., release of free Dex, time points to 32 hr, read-out: Half-life (hours) as measured in the hydrolysis experiments (converted)
Protocol: In order to determine hydrolysis rates, conjugates can be diluted in PBS, rat plasma, or human plasma and incubated at 37 degrees. Samples can be taken at designated time-points (e.g., 1, 2, 3, 5, 10, 15, 20, 25, 30, 45, 60, or 90 minutes and/or hours after administration). Internal standards such as triamcinolone acetonide (TAA) can be added as an internal standard, and then active agent/TAA can be extracted using acetonitrile, for example. The samples can be dried down, reconstituted, and analyzed by LC/MS. Data can be normalized using Dex AUC/TAA AUC. Percent hydrolysis can be calculated using the average ratio for active agent AUC/TAA AUC at a time point of maximal drug release. A general method can include using a lyophilized, purified peptide-drug conjugates reconstituted in DMSO following production to generate stock solution at 20 mg/mL. Each conjugate stock can be brought to 0.25 mg/mL in each hydrolysis condition (1×DPBS, human plasma and rat plasma) in triplicate and rocked at 37° C. To quantitate free active agent, 100 μl of the hydrolyzed conjugate solution can be transferred into 1 mL acetonitrile at 4° C. at which time all plasma proteins and intact conjugates can precipitate. This can be performed repeatedly to generate a series of time points (0 hr, 0.5 hr, 1 hr, 2 hr, 4 hr, 6 hr, 8 hr, 24 hr, 32 hr). The acetonitrile solution can be spun at 17,000 g for 5 minutes, and the supernatant removed and added to a 96 well block. The pellet can then be resuspended in 500 μl acetonitrile and re-pelleted as before. The supernatant can be removed and added to the same well in the block. Samples can be prepared for analysis by drying under a nitrogen stream followed by reconstitution in 110 μl 45:55 ACN:Citrate 10 mM pH 5.5. […] Quantification of free active agent (or drug) can be achieved through integration of active agent peaks of the TIC. […]
To quantitate free dexamethasone (Dex), 100 μl of the hydrolyzed conjugate solution was transferred into 1 mL acetonitrile at 4° C. at which time all plasma proteins and intact conjugates precipitated. […]

CIA rats = system: CIA rats
Protocol: Arthritis was induced in 9-week-old female Lewis rats (Envigo or Charles River Laboratories) by intradermal injection while anesthetized of 400 ug bovine type II collagen (Chondrex Inc, Redmond Wash.) in 2 adjacent 200 ul (1 mg/ml) doses on day 0. Collagen is prepared for injection by dissolving at 2 mg/ml in 0.01N glacial acetic acid in sterile water and rocking at 4° C. overnight then emulsifying in Freund's incomplete adjuvant (IFA, Sigma Aldrich). To emulsify, equal volumes of collagen solution and IFA are drawn up into separate syringes, which are joined by a 3-way stopcock. While on ice, the collagen and IFA are mixed by pressing between the two syringes rapidly for 10 minutes. Quality of the emulsification is tested after 10 minutes of mixing by dropping a small amount of mixture in water. A properly emulsified solution will remain as a discrete droplet and not disperse in the water. On day 7, rats are challenged with a second intradermal injection of 100 ug of collagen in 100 ul, 1 mg/ml, collagen in IFA solution prepared fresh. Body weight and ankle diameter measurements are recorded daily from day 7 through the end of the study. Ankle diameter was measure by a single researcher using a Fowler Digitrix 2 micrometer. Three measurements of each ankle were taken of the lateral dimension at the tarsus of lightly anesthetized rats. The reported ankle diameter measurement is the mean of the three measurements.
Arthritis was induced as described in four cohorts of 9-week-old female Lewis rats. Rats were randomly placed in treatment groups, balancing compound and dose groups across cohorts. […] Rats were dosed by tail vein injection on days 11 and 12 and euthanized on day 13 by CO2 asphyxiation. Immediately after cessation of respiratory movement, blood was collected by cardiac puncture, synovial fluid was collected from both knees, one hind limb was fixed in formalin and the alternate ankle was frozen on dry ice. Thymus, spleen, liver, and kidney weights were recorded.
CIA Response study design.
The aim of the study was to test the 4 conjugates with various linkers at two different doses in vivo in CIA rats to assess the following: ability to deliver sufficient dexamethasone to the joint to show functionality and potential therapeutic effect in the disease model.
CIA was induced in female Lewis rats (as described above, see EXAMPLE 21). Body weight and ankle joint diameters were measured on day 0 and then daily from day 7 until euthanasia. […] At euthanasia, synovial fluid was collected from both knees, one hind limb was fixed in formalin and the alternate ankle was frozen on dry ice. Thymus, spleen, liver, and kidney weights were recorded. Blood samples were submitted for CBC/Chemistry analysis, and the remaining plasma was frozen.

## CC[C@H](C)[C@@H]1NC(=O)[C@@H]2CSSC[C@H](NC(=O)[C@H](CCCNC(=N)N)NC(=O)[C@@H](NC(=O)[C@H](CC(N)=O)NC(=O)[C@@H](NC(=O)[C@@H]3CCCN3C(=O)[C@@H](NC(=O)CNC(=O)[C@H](CO)NC(=O)CNC(=O)C(C)CCC(C)C(=O)OCC(=O)[C@@]3(O)[C@H](C)C[C@H]4[C@@H]5CCC6=CC(=O)C=C[C@]6(C)[C@@]5(F)[C@@H](O)C[C@@]43C)C(C)C)[C@@H](C)CC)C(C)C)C(=O)N[C@@H](CCCNC(=N)N)C(=O)NCC(=O)N[C@@H](CO)C(=O)N[C@@H](CCCNC(=N)N)C(=O)N[C@@H](CC(=O)O)C(=O)N[C@H]3CSSC[C@H](NC(=O)[C@H](CCCNC(=N)N)NC(=O)[C@H](CO)NC(=O)[C@H](CC(N)=O)NC1=O)C(=O)N[C@@H](Cc1c[nH]cn1)C(=O)N[C@H](C(=O)N[C@H](C(=O)N1CCC[C@H]1C(=O)O)[C@@H](C)O)CSSC[C@H](NC(=O)[C@@H]1CCCN1C(=O)[C@H](CC(=O)O)NC(=O)[C@H](CC(C)C)NC3=O)C(=O)N[C@@H](CCCNC(=N)N)C(=O)N[C@@H](CCCNC(=N)N)C(=O)N[C@@H](C)C(=O)NCC(=O)N[C@@H](CCSC)C(=O)N[C@@H](CCCNC(=N)N)C(=O)N[C@@H](Cc1ccccc1)C(=O)NCC(=O)N[C@@H](CCCNC(=N)N)C(=O)N2 (some centres unmarked) [Compound 27, peptide(SEQ ID NO: 105)-[dimethyladipic acid]-Dex] (X1-GSGVPINVRCRGSRDCLDPCRRAGMRFGRCINSRCHCTP-OH; disulfide 10-30, 16-35, 20-37 (inferred); C-terminus assumed)
[1]
  half-life at 0.25 mg/mL: 22.4 h
CIA rats; 0.2 mg/kg and 0.5 mg/kg Dex equivalents IV days 11 and 12
  ankle swelling over time as compared to vehicle: reduction in ankle swelling
CIA rats; 0.2 mg/kg and 0.5 mg/kg dose
  spleen weight: reduction
  thymus weight: reduction
  total body weight: reduction
CIA rats; 0.2 mg/kg dose
  change in median ankle diameter between day 11 and day 13 as compared to vehicle: statistically significant reduction in ankle diameter
  difference from Dex in change in ankle diameter: no statistically significant difference
CIA rats; 1 mg/kg Dex equivalents IV, some rats
  mortality and tolerability: died overnight
